Target: T1, J-binding protein 1 (JBP1) (Crithidia fasciculata) (UniProt Q9U6M2)
T1 sequence: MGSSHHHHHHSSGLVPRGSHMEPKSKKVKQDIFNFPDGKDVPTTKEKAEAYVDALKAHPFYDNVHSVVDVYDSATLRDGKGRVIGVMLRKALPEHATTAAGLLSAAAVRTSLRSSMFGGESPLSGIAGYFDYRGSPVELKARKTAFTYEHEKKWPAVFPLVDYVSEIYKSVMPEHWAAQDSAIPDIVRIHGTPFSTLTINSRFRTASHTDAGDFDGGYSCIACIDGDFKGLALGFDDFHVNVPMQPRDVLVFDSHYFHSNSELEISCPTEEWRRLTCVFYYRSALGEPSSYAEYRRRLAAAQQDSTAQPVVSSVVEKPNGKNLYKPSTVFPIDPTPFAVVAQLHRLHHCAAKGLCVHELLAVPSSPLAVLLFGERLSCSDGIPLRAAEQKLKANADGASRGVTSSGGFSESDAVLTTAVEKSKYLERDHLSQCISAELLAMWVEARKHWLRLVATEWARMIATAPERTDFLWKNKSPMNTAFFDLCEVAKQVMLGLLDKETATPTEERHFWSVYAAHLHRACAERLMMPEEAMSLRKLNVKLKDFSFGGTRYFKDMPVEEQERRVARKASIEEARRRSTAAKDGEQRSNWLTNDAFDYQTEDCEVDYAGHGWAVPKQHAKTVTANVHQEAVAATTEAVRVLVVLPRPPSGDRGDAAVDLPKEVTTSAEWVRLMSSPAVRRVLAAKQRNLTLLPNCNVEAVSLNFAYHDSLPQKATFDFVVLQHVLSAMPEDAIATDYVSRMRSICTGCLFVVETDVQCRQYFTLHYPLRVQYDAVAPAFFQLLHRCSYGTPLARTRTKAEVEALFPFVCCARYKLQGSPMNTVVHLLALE
Assay: pulldown
Settings: beta-glucosyl-5hmC in place of all C (outside primers); 132 ng JBP1 beads, 10 ng DNA, 150 mM NaCl, 10 mM Tris pH 8.0, 2 mM EDTA, room temperature

pUC18 2.7 kb PCR product, beta-glu-5hmC
binding signal (% DNA pulled down): < 6
